Laboratory results reported in US6689868 (Dana-Farber, dated 2004).

Tests used:
[1] = molecular target: SHPTP1 (endogenous, activated human T cells) (human, UniProt P29350 1-595, limits assumed); assay: co-immunoprecipitation with 8C93D8 from activated human T cell lysates, Western blot
Experimental: (§1) To identify the protein tyrosine phosphatase associated with CD2BP1, activated human T cells were disrupted in lysis buffer at 30 ×10^6/ml and the supernatant collected as described above. After preclearing with control beads (CNBr activated beads linked to nonspecific mouse IgG at 5 mg/ml, Sigma) overnight, the supernatant was diluted to 10 ×10^6 cells/ml in lysis buffer containing 0.1% bovine serum albumin (BSA). CD2BP1 and any associated molecules were immunoprecipitated by incubation at 4° C. for 3 h with CNBr beads coupled to either anti-CD2BP1 mAb 8C93D8 or, as a control, nonspecific mouse IgG. After two washes in lysis buffer and one wash in TBS, the immunocomplexes on the beads were eluted by heating at 65° C. for 20 min in SDS sample buffer and subjected to 12.5% reducing SDS-PAGE. After electrophoresis, proteins on the gel were transferred to nitrocellulose for Western blotting. The membranes were then probed with different primary antibodies: rabbit anti-human PTP-PEST (CSH8) 1:1000 (Garton and Tonks, 1994), rabbit anti-human FLP (aEN12) 1:1000 (Dosil et al., 1996), goat anti-human SHPTP1 (Santa Cruz) 1:100, rabbit antihuman SHPTP2 (Santa Cruz) 1:100, followed by washing and incubation with the secondary HRPO-conjugated goat anti-rabbit antibody (1:5000) or donkey anti-goat antibody (Santa Cruz) 1:2000, and signals developed by ECL. […]

[2] = molecular target: T1, SHPTP2 (endogenous, activated human T cells) (human, UniProt Q06124 2-593); assay: as above
T1 sequence (looked up): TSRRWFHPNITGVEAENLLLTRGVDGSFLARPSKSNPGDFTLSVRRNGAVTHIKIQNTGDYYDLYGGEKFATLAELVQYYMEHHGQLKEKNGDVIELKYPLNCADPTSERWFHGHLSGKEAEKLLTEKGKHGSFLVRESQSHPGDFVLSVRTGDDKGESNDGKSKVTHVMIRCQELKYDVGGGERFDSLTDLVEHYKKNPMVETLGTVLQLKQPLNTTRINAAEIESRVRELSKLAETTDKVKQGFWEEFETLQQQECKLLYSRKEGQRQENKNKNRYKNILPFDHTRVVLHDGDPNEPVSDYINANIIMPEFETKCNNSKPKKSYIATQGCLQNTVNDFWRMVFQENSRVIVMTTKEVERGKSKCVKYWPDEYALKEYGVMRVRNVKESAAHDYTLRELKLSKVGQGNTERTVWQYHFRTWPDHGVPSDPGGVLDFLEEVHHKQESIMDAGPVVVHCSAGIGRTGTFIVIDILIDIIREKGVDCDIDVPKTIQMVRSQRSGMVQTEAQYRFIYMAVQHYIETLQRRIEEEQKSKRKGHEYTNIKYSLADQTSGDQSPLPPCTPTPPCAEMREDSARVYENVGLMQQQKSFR
Experimental: as §1

SHPTP1 (endogenous, activated human T cells), sequence (P29350 whole entry): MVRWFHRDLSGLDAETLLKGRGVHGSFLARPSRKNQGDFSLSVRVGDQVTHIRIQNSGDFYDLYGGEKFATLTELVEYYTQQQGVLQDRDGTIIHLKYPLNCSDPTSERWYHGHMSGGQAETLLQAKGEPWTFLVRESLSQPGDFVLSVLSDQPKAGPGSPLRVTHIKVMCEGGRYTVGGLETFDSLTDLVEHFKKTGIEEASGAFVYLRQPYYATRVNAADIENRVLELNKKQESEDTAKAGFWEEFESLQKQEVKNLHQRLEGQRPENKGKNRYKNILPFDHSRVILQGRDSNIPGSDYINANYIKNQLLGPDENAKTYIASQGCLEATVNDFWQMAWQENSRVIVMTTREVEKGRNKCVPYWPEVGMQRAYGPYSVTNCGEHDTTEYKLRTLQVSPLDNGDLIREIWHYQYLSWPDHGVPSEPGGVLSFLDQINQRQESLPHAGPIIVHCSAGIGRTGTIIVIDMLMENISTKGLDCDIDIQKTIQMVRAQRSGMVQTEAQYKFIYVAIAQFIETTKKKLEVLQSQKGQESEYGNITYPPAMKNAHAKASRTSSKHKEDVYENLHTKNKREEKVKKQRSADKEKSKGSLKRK

B1: CD2BP1 protein (endogenous, activated human T cells) (other)
chain: MMPQLQFKDAFWCRDFTAHTGYEVLLQRLLDGRKMCKDMEELLRQRAQAEERYGKELVQIARKAGGQTEINSLRASFDSLKQQMENVGSSHIQLALTLREELRSLEEFRERQKEQRKKYEAVMDRVQKSKLSLYKKAMESKKTYEQKCRDADDAEQAFERISANGHQKQVEKSQNKARQCKDSATEAERVYRQSIAQLEKVRAEWEQEHRTTCEAFQLQEFDRLTILRNALWVHSNQLSMQCVKDDELYEEVRLTLEGCSIDADIDSFIQAKSTGTEPPAPVPYQNYYDREVTPLTSSPGIQPSCGMIKRFSGLLHGSPKTTSLAASAASTETLTPTPERNEGVYTAIAVQEIQGNPASPAQEYRALYDYTAQNPDELDLSAGDILEVILEGEDGWWTVERNGQRGFVPGSYLEKL
notes: Endogenous protein
**Q.** Does B1 bind [1]?
**A.** no binding

**Q.** Does B1 bind [2]?
**A.** no binding
